Measured values: patent US20140087995A1 (published 2014)
Numbering of substitutions follows the chain as printed. Numbered stars: 1 amine (or outer) side, 2 acyl side, 3 side chain; on linkers, the order of the positions; unused ones are H or OH. Bridge positions count the residues as written; N and C are the ends. Side chains are listed from the residue outwards. Ends that are not written are not given here. * marks the point of attachment. C20 diacid = O=C(O)CCCCCCCCCCCCCCCCCCC(=O)*; γGlu = O=C(O)[C@H](CCC(=O)[*:2])N[*:1]; AEEA = NCCOCCOCC(=O)O

T1: human amylin 3(a) receptor (human calcitonin receptor co-expressed with RAMP-3) (human, UniProt P30988 25-474; O60896 24-148, limits assumed)
T1 sequence (looked up) 1: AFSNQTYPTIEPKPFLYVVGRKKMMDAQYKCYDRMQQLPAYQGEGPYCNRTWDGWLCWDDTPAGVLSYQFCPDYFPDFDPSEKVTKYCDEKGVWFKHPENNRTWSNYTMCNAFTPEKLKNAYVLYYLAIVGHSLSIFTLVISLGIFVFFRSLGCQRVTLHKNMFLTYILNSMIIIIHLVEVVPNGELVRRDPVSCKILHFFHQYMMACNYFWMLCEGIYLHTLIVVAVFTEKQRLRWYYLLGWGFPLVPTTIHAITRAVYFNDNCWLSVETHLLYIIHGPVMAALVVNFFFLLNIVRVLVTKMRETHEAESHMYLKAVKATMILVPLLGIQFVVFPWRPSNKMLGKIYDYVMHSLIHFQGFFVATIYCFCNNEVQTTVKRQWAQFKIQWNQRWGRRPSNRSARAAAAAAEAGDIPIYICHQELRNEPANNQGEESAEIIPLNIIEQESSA
T1 sequence (looked up) 2: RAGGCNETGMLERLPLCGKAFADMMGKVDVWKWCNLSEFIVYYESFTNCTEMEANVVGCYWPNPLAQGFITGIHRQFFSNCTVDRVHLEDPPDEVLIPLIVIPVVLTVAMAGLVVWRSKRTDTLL

T2: human calcitonin receptor (human, UniProt P30988 25-474)
T2 sequence (looked up): T1 sequence (looked up) 1

B1: N^α1-[2-[2-[2-[[2-[2-[2-[[(4S)-4-carboxy-4-(19-carboxynonadecanoylamino)butanoyl]amino]ethoxy]ethoxy]acetyl]amino]ethoxy]ethoxy]acetyl]-[Glu14,Arg17,Pro21,Pro27 … (peptide)
peptide: KCNTATCATQRLAEFLRHSSPNFGAIPSSTNVGSNTY
modifications: alpha-amino group of N-terminal Lys1 acylated with C20 diacid via linker gGlu-2xOEG; disulfide bridge Cys2-Cys7 and C-terminal amide as in human amylin
notes: also called compound 19
B2: N^α1-[(4S)-4-carboxy-4-(19-carboxynonadecanoylamino)butanoyl]-[Arg17,Pro21,Pro27,His34]-h-amylin (peptide)
peptide: B1 peptide with E14N, S34H
modifications: alpha-amino group of N-terminal Lys1 acylated with C20 diacid via linker gGlu; disulfide bridge Cys2-Cys7 and C-terminal amide as in human amylin
notes: also called compound 40
B3: N^ε1-[2-[2-[2-[[(4S)-4-carboxy-4-(19-carboxynonadecanoylamino)butanoyl]amino]ethoxy]ethoxy]acetyl]-[Arg14,Arg17,Pro21,Pro27,Pro31]-h-amylin (peptide)
peptide: K([AEEA-γGlu-C20 diacid])CNTATCATQRLARFLRHSSPNFGAIPSSTPVGSNTY-NH2
modifications: disulfide 2-7; N-terminus assumed
SMILES: CC[C@H](C)[C@H](NC(=O)[C@H](C)NC(=O)CNC(=O)[C@H](Cc1ccccc1)NC(=O)[C@H](CC(N)=O)NC(=O)[C@@H]1CCCN1C(=O)[C@H](CO)NC(=O)[C@H](CO)NC(=O)[C@H](Cc1c[nH]cn1)NC(=O)[C@H](CCCNC(=N)N)NC(=O)[C@H](CC(C)C)NC(=O)[C@H](Cc1ccccc1)NC(=O)[C@H](CCCNC(=N)N)NC(=O)[C@H](C)NC(=O)[C@H](CC(C)C)NC(=O)[C@H](CCCNC(=N)N)NC(=O)[C@H](CCC(N)=O)NC(=O)[C@@H](NC(=O)[C@H](C)NC(=O)[C@@H]1CSSC[C@H](NC(=O)[C@@H](N)CCCCNC(=O)COCCOCCNC(=O)CC[C@H](NC(=O)CCCCCCCCCCCCCCCCCCC(=O)O)C(=O)O)C(=O)N[C@@H](CC(N)=O)C(=O)N[C@@H]([C@@H](C)O)C(=O)N[C@@H](C)C(=O)N[C@@H]([C@@H](C)O)C(=O)N1)[C@@H](C)O)C(=O)N1CCC[C@H]1C(=O)N[C@@H](CO)C(=O)N[C@@H](CO)C(=O)N[C@H](C(=O)N1CCC[C@H]1C(=O)N[C@H](C(=O)NCC(=O)N[C@@H](CO)C(=O)N[C@@H](CC(N)=O)C(=O)N[C@H](C(=O)N[C@@H](Cc1ccc(O)cc1)C(N)=O)[C@@H](C)O)C(C)C)[C@@H](C)O
notes: also called compound 64
B4: N^ε1-[2-[2-[2-[[(4S)-4-carboxy-4-(19-carboxynonadecanoylamino)butanoyl]amino]ethoxy]ethoxy]acetyl]-[Arg14,Arg17,Pro21,Pro27]-h-amylin (peptide)
peptide: K([AEEA-γGlu-C20 diacid])CNTATCATQRLARFLRHSSPNFGAIPSSTNVGSNTY-NH2
modifications: disulfide 2-7; N-terminus assumed
SMILES: CC[C@H](C)[C@H](NC(=O)[C@H](C)NC(=O)CNC(=O)[C@H](Cc1ccccc1)NC(=O)[C@H](CC(N)=O)NC(=O)[C@@H]1CCCN1C(=O)[C@H](CO)NC(=O)[C@H](CO)NC(=O)[C@H](Cc1c[nH]cn1)NC(=O)[C@H](CCCNC(=N)N)NC(=O)[C@H](CC(C)C)NC(=O)[C@H](Cc1ccccc1)NC(=O)[C@H](CCCNC(=N)N)NC(=O)[C@H](C)NC(=O)[C@H](CC(C)C)NC(=O)[C@H](CCCNC(=N)N)NC(=O)[C@H](CCC(N)=O)NC(=O)[C@@H](NC(=O)[C@H](C)NC(=O)[C@@H]1CSSC[C@H](NC(=O)[C@@H](N)CCCCNC(=O)COCCOCCNC(=O)CC[C@H](NC(=O)CCCCCCCCCCCCCCCCCCC(=O)O)C(=O)O)C(=O)N[C@@H](CC(N)=O)C(=O)N[C@@H]([C@@H](C)O)C(=O)N[C@@H](C)C(=O)N[C@@H]([C@@H](C)O)C(=O)N1)[C@@H](C)O)C(=O)N1CCC[C@H]1C(=O)N[C@@H](CO)C(=O)N[C@@H](CO)C(=O)N[C@H](C(=O)N[C@@H](CC(N)=O)C(=O)N[C@H](C(=O)NCC(=O)N[C@@H](CO)C(=O)N[C@@H](CC(N)=O)C(=O)N[C@H](C(=O)N[C@@H](Cc1ccc(O)cc1)C(N)=O)[C@@H](C)O)C(C)C)[C@@H](C)O
notes: also called compound 82
B5: N^ε1-[2-[2-[2-[[2-[2-[2-[[(4S)-4-carboxy-4-(19-carboxynonadecanoylamino)butanoyl]amino]ethoxy]ethoxy]acetyl]amino]ethoxy]ethoxy]acetyl]-[Arg17,Pro21,Pro27,Glu35 … (peptide)
peptide: K([AEEA-AEEA-γGlu-C20 diacid])CNTATCATQRLANFLRHSSPNFGAIPSSTNVGSETY-NH2
modifications: disulfide 2-7; N-terminus assumed
SMILES: CC[C@H](C)[C@H](NC(=O)[C@H](C)NC(=O)CNC(=O)[C@H](Cc1ccccc1)NC(=O)[C@H](CC(N)=O)NC(=O)[C@@H]1CCCN1C(=O)[C@H](CO)NC(=O)[C@H](CO)NC(=O)[C@H](Cc1c[nH]cn1)NC(=O)[C@H](CCCNC(=N)N)NC(=O)[C@H](CC(C)C)NC(=O)[C@H](Cc1ccccc1)NC(=O)[C@H](CC(N)=O)NC(=O)[C@H](C)NC(=O)[C@H](CC(C)C)NC(=O)[C@H](CCCNC(=N)N)NC(=O)[C@H](CCC(N)=O)NC(=O)[C@@H](NC(=O)[C@H](C)NC(=O)[C@@H]1CSSC[C@H](NC(=O)[C@@H](N)CCCCNC(=O)COCCOCCNC(=O)COCCOCCNC(=O)CC[C@H](NC(=O)CCCCCCCCCCCCCCCCCCC(=O)O)C(=O)O)C(=O)N[C@@H](CC(N)=O)C(=O)N[C@@H]([C@@H](C)O)C(=O)N[C@@H](C)C(=O)N[C@@H]([C@@H](C)O)C(=O)N1)[C@@H](C)O)C(=O)N1CCC[C@H]1C(=O)N[C@@H](CO)C(=O)N[C@@H](CO)C(=O)N[C@H](C(=O)N[C@@H](CC(N)=O)C(=O)N[C@H](C(=O)NCC(=O)N[C@@H](CO)C(=O)N[C@@H](CCC(=O)O)C(=O)N[C@H](C(=O)N[C@@H](Cc1ccc(O)cc1)C(N)=O)[C@@H](C)O)C(C)C)[C@@H](C)O
notes: also called compound 25
B6: N^ε1-[2-[2-[2-[[(4S)-4-carboxy-4-(19-carboxynonadecanoylamino)butanoyl]amino]ethoxy]ethoxy]acetyl]-[Arg17,Pro21,Pro27,Arg34]-h-amylin (peptide)
peptide: K([AEEA-γGlu-C20 diacid])CNTATCATQRLANFLRHSSPNFGAIPSSTNVGRNTY-NH2
modifications: disulfide 2-7; N-terminus assumed
SMILES: CC[C@H](C)[C@H](NC(=O)[C@H](C)NC(=O)CNC(=O)[C@H](Cc1ccccc1)NC(=O)[C@H](CC(N)=O)NC(=O)[C@@H]1CCCN1C(=O)[C@H](CO)NC(=O)[C@H](CO)NC(=O)[C@H](Cc1c[nH]cn1)NC(=O)[C@H](CCCNC(=N)N)NC(=O)[C@H](CC(C)C)NC(=O)[C@H](Cc1ccccc1)NC(=O)[C@H](CC(N)=O)NC(=O)[C@H](C)NC(=O)[C@H](CC(C)C)NC(=O)[C@H](CCCNC(=N)N)NC(=O)[C@H](CCC(N)=O)NC(=O)[C@@H](NC(=O)[C@H](C)NC(=O)[C@@H]1CSSC[C@H](NC(=O)[C@@H](N)CCCCNC(=O)COCCOCCNC(=O)CC[C@H](NC(=O)CCCCCCCCCCCCCCCCCCC(=O)O)C(=O)O)C(=O)N[C@@H](CC(N)=O)C(=O)N[C@@H]([C@@H](C)O)C(=O)N[C@@H](C)C(=O)N[C@@H]([C@@H](C)O)C(=O)N1)[C@@H](C)O)C(=O)N1CCC[C@H]1C(=O)N[C@@H](CO)C(=O)N[C@@H](CO)C(=O)N[C@H](C(=O)N[C@@H](CC(N)=O)C(=O)N[C@H](C(=O)NCC(=O)N[C@@H](CCCNC(=N)N)C(=O)N[C@@H](CC(N)=O)C(=O)N[C@H](C(=O)N[C@@H](Cc1ccc(O)cc1)C(N)=O)[C@@H](C)O)C(C)C)[C@@H](C)O
notes: also called compound 78
B7: N^ε1-[2-[2-[2-[[(4S)-4-carboxy-4-(19-carboxynonadecanoylamino)butanoyl]amino]ethoxy]ethoxy]acetyl]-[Ala14,Arg17,Pro21,Pro27,Pro31]-h-amylin (peptide)
peptide: K([AEEA-γGlu-C20 diacid])CNTATCATQRLAAFLRHSSPNFGAIPSSTPVGSNTY-NH2
modifications: disulfide 2-7; N-terminus assumed
SMILES: CC[C@H](C)[C@H](NC(=O)[C@H](C)NC(=O)CNC(=O)[C@H](Cc1ccccc1)NC(=O)[C@H](CC(N)=O)NC(=O)[C@@H]1CCCN1C(=O)[C@H](CO)NC(=O)[C@H](CO)NC(=O)[C@H](Cc1c[nH]cn1)NC(=O)[C@H](CCCNC(=N)N)NC(=O)[C@H](CC(C)C)NC(=O)[C@H](Cc1ccccc1)NC(=O)[C@H](C)NC(=O)[C@H](C)NC(=O)[C@H](CC(C)C)NC(=O)[C@H](CCCNC(=N)N)NC(=O)[C@H](CCC(N)=O)NC(=O)[C@@H](NC(=O)[C@H](C)NC(=O)[C@@H]1CSSC[C@H](NC(=O)[C@@H](N)CCCCNC(=O)COCCOCCNC(=O)CC[C@H](NC(=O)CCCCCCCCCCCCCCCCCCC(=O)O)C(=O)O)C(=O)N[C@@H](CC(N)=O)C(=O)N[C@@H]([C@@H](C)O)C(=O)N[C@@H](C)C(=O)N[C@@H]([C@@H](C)O)C(=O)N1)[C@@H](C)O)C(=O)N1CCC[C@H]1C(=O)N[C@@H](CO)C(=O)N[C@@H](CO)C(=O)N[C@H](C(=O)N1CCC[C@H]1C(=O)N[C@H](C(=O)NCC(=O)N[C@@H](CO)C(=O)N[C@@H](CC(N)=O)C(=O)N[C@H](C(=O)N[C@@H](Cc1ccc(O)cc1)C(N)=O)[C@@H](C)O)C(C)C)[C@@H](C)O
notes: also called compound 72
B8: N^ε1-[(4S)-4-carboxy-4-[[(4S)-4-carboxy-4-(19-carboxynonadecanoylamino)butanoyl]amino]butanoyl]-[Asp14,Arg17,Pro21,Pro27,Arg35]-h-amylin (peptide)
peptide: K([γGlu-γGlu-C20 diacid])CNTATCATQRLADFLRHSSPNFGAIPSSTNVGSRTY-NH2
modifications: disulfide 2-7; N-terminus assumed
SMILES: CC[C@H](C)[C@H](NC(=O)[C@H](C)NC(=O)CNC(=O)[C@H](Cc1ccccc1)NC(=O)[C@H](CC(N)=O)NC(=O)[C@@H]1CCCN1C(=O)[C@H](CO)NC(=O)[C@H](CO)NC(=O)[C@H](Cc1c[nH]cn1)NC(=O)[C@H](CCCNC(=N)N)NC(=O)[C@H](CC(C)C)NC(=O)[C@H](Cc1ccccc1)NC(=O)[C@H](CC(=O)O)NC(=O)[C@H](C)NC(=O)[C@H](CC(C)C)NC(=O)[C@H](CCCNC(=N)N)NC(=O)[C@H](CCC(N)=O)NC(=O)[C@@H](NC(=O)[C@H](C)NC(=O)[C@@H]1CSSC[C@H](NC(=O)[C@@H](N)CCCCNC(=O)CC[C@H](NC(=O)CC[C@H](NC(=O)CCCCCCCCCCCCCCCCCCC(=O)O)C(=O)O)C(=O)O)C(=O)N[C@@H](CC(N)=O)C(=O)N[C@@H]([C@@H](C)O)C(=O)N[C@@H](C)C(=O)N[C@@H]([C@@H](C)O)C(=O)N1)[C@@H](C)O)C(=O)N1CCC[C@H]1C(=O)N[C@@H](CO)C(=O)N[C@@H](CO)C(=O)N[C@H](C(=O)N[C@@H](CC(N)=O)C(=O)N[C@H](C(=O)NCC(=O)N[C@@H](CO)C(=O)N[C@@H](CCCNC(=N)N)C(=O)N[C@H](C(=O)N[C@@H](Cc1ccc(O)cc1)C(N)=O)[C@@H](C)O)C(C)C)[C@@H](C)O
notes: also called compound 52

Each binder was assayed against T1, human amylin 3(a) receptor (human …) (assay: cell-based or functional assay).

Ratio hCT/hAmylin funct. (hCTR EC50 over hAmylin-R EC50) | hAmylin-R funct. EC50 (pM) | Binder
17.4 | 307 pM | B1
16.4 | 164 pM | B2
60.7 | 378 pM | B3
59.2 | 215 pM | B4
46.2 | 217 pM | B5
25.8 | 316 pM | B6
44.9 | 106 pM | B7

The binders below were run against T2, human calcitonin receptor (assay: cell-based or functional assay).

hCTR funct. EC50 | Binder
14.1 nM | B8
